For experiment [1], the target named is T1, hCCR4 partial peptide (Compound 1) (human, conjugated with thyroglobulin (THY) using SMCC as the crosslinking agent).
T1 construct: Synthetic peptide, coated on ELISA plates as a THY conjugate
T1 peptide: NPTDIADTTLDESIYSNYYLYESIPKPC
Briefly: ELISA on plate-coated hCCR4 partial peptide conjugate. (ELISA stands for enzyme-linked immunosorbent assay.)

Experiment [2] concerns the target T2, mCCR4 partial peptide (Compound 2) (mouse, conjugated with thyroglobulin (THY) using SMCC as the crosslinking agent).
T2 construct: Synthetic peptide, coated on ELISA plates as a THY conjugate
T2 peptide: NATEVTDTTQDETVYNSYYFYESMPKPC
Briefly: ELISA, THY-peptide conjugate coated at 10 µg/ml, antibody concentration varied. As to the method: (§1) The conjugate prepared in the above manner was dispensed at 10 μg/ml and 50 μl/well into a 96 well plate for EIA (manufactured by Greiner) and adhered thereto by incubating it at 4° C. overnight. After washing with PBS, 1% BSA-containing PBS (hereinafter referred to as “1% BSA-PBS”) was added at 100 μl/well, and the mixture was allowed to react at room temperature for 1 hour to block the remaining active groups. After removing 1% BSA-PBS, diluted solutions of a transformant culture supernatant, a purified mouse antibody or a purified human chimeric antibody was dispensed at 50 μl/well, and the mixture was allowed to react at room temperature for 1 hour. […] After the reaction, each well was washed with Tween-PBS, ABTS solution (a solution prepared by dissolving 0.55 g of 2,2′-azino-bis(3-ethylbenzothiazoline-6-sulfonic acid)ammonium in 1 liter of 0.1 M citrate buffer (pH 4.2), and adding 1 μl/ml of hydrogen peroxide just before use) was dispensed at 50 μl/well for color developing, and the absorbance at 415 nm (hereinafter referred to as “OD₄₁₅”) was measured.
(§2) Reactivity of the purified anti-CCR4 chimeric antibody KM2760 to human CCR4 and mouse CCR4 was measured by ELISA shown in 2(3) of Example 2. […]

The target in experiment [3] is T1, hCCR4 partial peptide (Compound 1). Described as above. The protocol:
as §1, §2

In experiment [4] the target is T3, human CC chemokine receptor 4 (human CCR4) (human, UniProt P51679 1-360).
T3 construct: Expressed on mouse EL-4 cells transfected with hCCR4 DNA (CCR4/EL-4); also called hCCR4; K5-5
T3 sequence: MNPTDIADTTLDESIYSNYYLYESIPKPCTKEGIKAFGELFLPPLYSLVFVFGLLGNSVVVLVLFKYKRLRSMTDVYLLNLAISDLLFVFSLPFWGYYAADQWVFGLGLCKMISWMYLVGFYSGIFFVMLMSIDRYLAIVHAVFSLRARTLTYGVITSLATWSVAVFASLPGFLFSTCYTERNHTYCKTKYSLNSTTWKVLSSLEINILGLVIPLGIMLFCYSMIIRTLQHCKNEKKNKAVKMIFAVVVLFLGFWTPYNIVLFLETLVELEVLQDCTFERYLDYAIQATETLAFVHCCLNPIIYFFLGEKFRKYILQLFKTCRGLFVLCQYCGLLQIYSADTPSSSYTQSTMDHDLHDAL
Briefly: flow cytometry (immunofluorescent method) on hCCR4-high-expressing EL-4 cells. As to the method: They were selected by an immunofluorescent method using KM2160 prepared in Example 1(5). Into a 96 well U shape plate, 2×10⁵ cells of each of selected several tens of the gene-introduced clones was dispensed. KM2160 labeled with biotin by a known method (Enzyme Antibody Method, published by Gakusai Kikaku) was diluted to 5 μg/ml with a buffer for FACS (1% BSA-PBS, 0.02% EDTA, 0.05% NaN₃, pH 7.4), human IgG (manufactured by Welfide) was diluted to 3.75 mg/ml to prevent nonspecific staining, each of the thus diluted antibody solution was dispensed at 200 μl/well, and the mixture was allowed to react in ice for 30 minutes. As a negative control, biotinylated anti-IL-5R antibody (WO 97/10354) was used at the same concentration. After washing twice with 200 μl/well of the buffer, streptoavidin-PE (manufactured by Becton Dickinson Japan) was dispensed at 20 μl/well. Thirty minutes after the reaction in ice in the dark, the cells were washed three times with 200 μl/well and finally suspended to 500 μl, and the fluorescence intensity was measured by a flow cytometer to select one cell line having the highest fluorescence intensity.
Reactivity of the purified anti-CCR4 chimeric antibody KM2760 with the hCCR4-high-expressing cell (hereinafter referred to as “CCR4/EL-4”) produced in 3(4) of Example 2 was measured in the same manner as in 3(4) of Example 2.
In general terms: A flow cytometer gives signals particle by particle.

B1: mouse anti-CCR4 monoclonal antibody KM2160 (antibody, mouse IgG1, V domains shown)
VH: EVQLVESGGDLMKPGGSLKISCAASGFIFSNYGMSWVRQTPDMRLEWVATISSASTYSYYPDSVKGRFTISRDNAENSLYLQMNSLRSEDTGIYYCGRHSDGNFAFGYWGRGTLVTVSA
VL: DVLMTQTPLSLPVSLGDQASISCRSSRNIVHINGDTYLEWYLQRPGQSPKLLIYKVSNRFSGVPDRFSGSGSGTDFTLKISRVEAEDLGVYYCFQGSLLPWTFGGGTRLEIRR
notes: Mouse IgG1 class with a kappa L chain, produced by hybridoma KM2160; also called anti-CCR4 mouse antibody KM2160
For the molecule B1, the binding result in experiment [1] is on record as “binds”.

B2: anti-CCR4 chimeric antibody KM2760 (antibody, V domains shown)
VH: B1 VH
VL: B1 VL
notes: Human chimeric antibody: CH is human IgG1 subclass and CL is human kappa class (vector pKANTEX93); It was expressed in rat YB2/0 cells; It was used biotinylated in the flow cytometry assays
Regarding B2, the binding result in experiment [2], in experiment [3] and in experiment [4] was “binds” in each case.

Values taken from patent publication US20020098527A1 (Kyowa Kirin, published 2002).
